In paper PMC5431086, “The Rational Design of Therapeutic Peptides for Aminopeptidase N using a Substrate-Based Approach” (Scientific Reports, 2017) one finds Ki, tumor volume of PC3 xenografts and IC50 data, which are given here for 33 molecules.

Starred links: 1 amine or outer side, 2 acyl side, 3 side chain; linkers in the order of their positions; H or OH if unused. Positions of bridges follow the written chain, without caps; N, C: chain ends. No end group written: not given here. *: point of attachment. Suc = O=C(CCC(=O)[*:2])[*:1]; Cbz = O=C(OCc1ccccc1)*; For = O=C*

Chain of aminopeptidase N on the surface of PC3 cells (human (endogenous in PC3)) (P15144 whole entry): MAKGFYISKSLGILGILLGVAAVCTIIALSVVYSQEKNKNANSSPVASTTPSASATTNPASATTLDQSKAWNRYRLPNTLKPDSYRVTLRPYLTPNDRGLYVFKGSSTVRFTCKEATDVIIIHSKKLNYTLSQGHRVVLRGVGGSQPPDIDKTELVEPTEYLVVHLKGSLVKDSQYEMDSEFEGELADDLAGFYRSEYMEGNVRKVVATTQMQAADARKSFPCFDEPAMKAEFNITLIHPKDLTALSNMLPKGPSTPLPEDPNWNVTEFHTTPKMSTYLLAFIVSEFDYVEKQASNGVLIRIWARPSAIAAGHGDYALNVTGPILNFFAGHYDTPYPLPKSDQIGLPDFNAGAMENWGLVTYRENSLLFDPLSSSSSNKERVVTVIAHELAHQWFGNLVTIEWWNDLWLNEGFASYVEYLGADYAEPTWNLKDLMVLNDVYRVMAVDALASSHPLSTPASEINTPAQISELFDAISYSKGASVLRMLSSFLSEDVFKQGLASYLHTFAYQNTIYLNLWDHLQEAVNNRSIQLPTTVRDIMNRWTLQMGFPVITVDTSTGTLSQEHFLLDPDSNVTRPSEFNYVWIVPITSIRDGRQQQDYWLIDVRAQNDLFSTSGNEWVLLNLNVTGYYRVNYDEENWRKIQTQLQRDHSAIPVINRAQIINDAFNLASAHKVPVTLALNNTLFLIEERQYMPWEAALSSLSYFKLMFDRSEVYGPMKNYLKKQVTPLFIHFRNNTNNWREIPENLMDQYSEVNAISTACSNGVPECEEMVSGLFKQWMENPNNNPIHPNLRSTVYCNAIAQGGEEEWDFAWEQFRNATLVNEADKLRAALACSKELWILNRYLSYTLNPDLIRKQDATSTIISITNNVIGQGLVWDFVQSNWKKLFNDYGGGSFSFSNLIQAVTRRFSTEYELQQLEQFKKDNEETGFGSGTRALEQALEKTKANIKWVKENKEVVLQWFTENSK

The first test has as its target chymotrypsin. The test is described as follows: enzyme inhibition assay (panel of proteases); cyc-LHSPW tested against a panel of cancer-associated proteases (Fig. 5A); conditions not given.
One may read the Ki as the equilibrium dissociation constant of an inhibitor or competing ligand from its target. Regarding CLHSPWC (disulfide 1-7) [cyc-LHSPW], the inhibition constant Ki was above 100 µM.

Another test addresses aminopeptidase N on the surface of PC3 cells (human (endogenous in PC3)) (UniProt P15144).
Assay: not given
Consider CLHSPWC (disulfide 1-7) [cyc-LHSPW], for which the tumor volume of PC3 xenografts at day 35, mice treated with 40 mg/kg cyc-LHSPW t.i.w. x4 (saline and cyc-NGR arms >1000 mm^3) was found to be 309 mm^3.

The target in the next test is recombinant human aminopeptidase N (hAPN) (human) (UniProt P15144). The test is described as follows: enzyme inhibition assay (competition with the fluorogenic substrate H-Ala-AMC); 0.1 μM APN, 100 μM H-Ala-AMC, 100 mM Tris pH 7.2, Brij 35 0.0002% w/v, 37 °C, triplicate; inhibition competitive, Ki from the IC50 by the Cheng-Prusoff equation.
With Ac-LHSPW [Ac-LHSPW], the inhibitory constant (Ki) is above 500 µM. As usually defined, the IC50 is the concentration needed to halve the response being measured. Take LDSTF: the half-inhibitory concentration (IC50) was above 500 µM.

Turning to AHLFN, the IC50 is above 500 µM. In the case of Cbz-HSPW [Cbz-HSPW], the Ki was above 500 µM. Same read-out and setting: to Suc-HSPW [Suc-HSPW] belongs above 500 µM. In the case of SKSGQ, the 50% inhibitory concentration (IC50) was above 500 µM. The same measure, in the same setting: for PHSPW the value was 82.5 µM; for FSLSK, above 500 µM. Consider CAHSPWC (disulfide 1-7) [cyc-AHSPW], for which the inhibitory constant (Ki) was above 500 µM. For AHSTF, the IC50 was above 500 µM. As for CPHSPWC (disulfide 1-7) [cyc-PHSPW], the Ki is above 500 µM. Take Cbz-LHSPW [Cbz-LHSPW]: the inhibition constant (Ki) was above 500 µM. As for FYLRE, the half-inhibitory concentration (IC50) is above 500 µM. Same read-out and setting: for EPKVA the value was above 500 µM; for RDLVD, above 500 µM; for EHSPW, 115 µM. For CADARKC (disulfide 1-7) [cyc-ADARK], the Ki is above 500 µM. For the molecule FDWWG, the IC50 was above 500 µM. The same measure, in the same setting: for AHSPW the value was 9.4 µM.

With CLHSPWC (disulfide 1-7) [cyc-LHSPW], the inhibition constant (Ki) amounted to 24.7 µM. ADARK: the half-inhibitory concentration (IC50) is above 500 µM. On the same count and under the same terms, for DARK the value was above 500 µM; for HSPW, 43.3 µM. For the molecule For-HSPW [For-HSPW], the Ki was above 500 µM. Regarding DSTF, the IC50 is above 500 µM.

For LHSPW, the IC50 worked out at 10.6 µM.

Take For-LHSPW [For-LHSPW]: the Ki was above 500 µM.

In the case of INDFL, the IC50 was above 500 µM.

As to Ac-HSPW [Ac-HSPW], the Ki was above 500 µM. On the same count and under the same terms, to CLHSPC (disulfide 1-6) [cyc-LHSP] belongs 121 µM.

As to CLDSTFC (disulfide 1-7) [cyc-LDSTF], the Ki is above 500 µM. Same read-out and setting: to CLHSC (disulfide 1-5) [cyc-LHS] belongs above 500 µM.

In the case of Suc-LHSPW [Suc-LHSPW], the Ki was above 500 µM.
